{
  "source": "paper PMC7761207",
  "about": "“Molecular Characterization of the Burkholderia cenocepacia dcw Operon and FtsZ Interactors as New Targets for Novel Antimicrobial Design” (Antibiotics, 2020)",
  "molecules": {"B1": {"name": "B. cenocepacia J2315 FtsA, BACTH hybrid (natural protein, Burkholderia cenocepacia J2315, UniProt B4E6I8 1-410, looked up)", "chain": "MSKDYKDLLVSLDIGTSKVVAIVAELKGEGHYEVIGLGQSESKGLKKGVVVNIEATVQSIQRALEEAELMADCKITNVFTGIAGSHIRSFNSSGMVAIKDKEVTQTDVARVIETAKAINIPTDQQVLHILTQEFIIDGQEDVREPIGMSGIRLEVKVHIVTGAVSAAQNIVKCVRRCGLEVNDLILQPLASSLAVLTEDEKDLGVVLVDIGGGTTDIAIFAEGAIRHTAVIPIAGDQITSDIAMALRTPTPDAEDIKVGYGIAKQALADPDEMVEVPGLGERGPRTLSRQALAAVIEPRVEELFSLVQQVVRESGYEELLSSGVVITGGASMMPGMVELGEDIFLKPVRIGAPEYAGGLSDVVRNPRYSTAMGLLVEGSAQRMRGRKVAVQSGNAGQVFSRMKEWFLSNF", "notes": "FtsA of Burkholderia cenocepacia J2315 (gene ftsA, BCAL3458); Cloned in all four BACTH vectors; source: bacterial two-hybrid (BACTH) fusion, E. coli BTH101"}, "B2": {"name": "B. cenocepacia J2315 FtsZ, BACTH hybrid (natural protein, Burkholderia cenocepacia J2315, UniProt B4E5Y7 1-398, looked up)", "chain": "MEFEMLETETNGTIIKVVGVGGAGGNAVQHMINRGVQGVDFIVMNTDAQALSRSRASSVIQLGNTGLGAGAKPEMGRAAAEEARERIADALRGAHMVFITAGMGGGTGTGAAPVVAQIAKEMGILTVGVVSKPFEFEGGKRMRVAEAGSQQLEDHVDSLIVVLNDKLFDVMGDDAEMDKCFQCADDVLNNAVAGIAEIINVDGLVNVDFEDVKTVMGEQGKAMMGTATVAGVDRARLAAEQAVASPLLEGVDLSGARGVLVNITSSRSLRLSETREVMNTIKSYAAEDATVIFGAVYDDAMGDALRVTVVATGLGRAAKKQQSAPMTLLRTGTDNQPVSAVSHGYAPAQHVSTADYGALDTPAVWRNSRETAASHVQALQEKGVDTYDIPAFLRKQAD", "notes": "FtsZ of Burkholderia cenocepacia J2315; gene amplified from genomic DNA; Cloned in all four BACTH vectors (pUT18, pUT18C, pKT25, pKNT25); by its place between BCAL3458 and BCAL3456 probably BCAL3457 (surmised); source: bacterial two-hybrid (BACTH) fusion, E. coli BTH101"}},
  "key": {"[1]": {"molecular_target": "T1, MraZ (Burkholderia cenocepacia J2315) (UniProt B4E6K1)", "T1 sequence": "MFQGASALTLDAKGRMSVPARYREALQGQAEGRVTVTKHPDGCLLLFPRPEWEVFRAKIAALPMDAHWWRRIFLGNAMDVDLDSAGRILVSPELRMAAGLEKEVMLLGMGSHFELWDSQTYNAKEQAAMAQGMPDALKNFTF", "test": "competition", "settings": "20 mM Tris-HCl pH 7.5, 100 mM NaCl, 5 mM MgCl2, 0.1 mM DTT, 150 ng/uL BSA, 50 ng/uL herring sperm DNA, 30 min 37 C; 1.5% agarose in 0.5x TBE at 4 C"}, "[2]": {"molecular_target": "T1, MraZ (Burkholderia cenocepacia J2315)", "test": "EMSA", "settings": "20 mM Tris-HCl pH 7.5, 100 mM NaCl, 5 mM MgCl2, 0.1 mM DTT, 150 ng/uL BSA, 50 ng/uL herring sperm DNA, 30 min 37 C; 1.5% agarose in 0.5x TBE at 4 C"}, "[3]": {"molecular_target": "B. cenocepacia FtsZ, protein of the sedimentation assays (Burkholderia cenocepacia)", "test": "co-sedimentation; with vesicles of E. coli total lipid extract (2 mg/mL); proteins 12 uM, 25 mM PIPES pH 6.8, 10 mM MgCl2, 2 mM GTP and/or ATP; 10 min 30 C; 20,000 x g 25 min 20 C"}, "[4]": {"molecular_target": "B2", "test": "two-hybrid; BACTH (bacterial adenylate cyclase two-hybrid) in E. coli cya strain BTH101; T18 and T25 hybrids; beta-galactosidase on LB-IPTG-X-Gal and MacConkey plates and in liquid culture, 30 C; at least four-fold over BTH101(pUT18/pKT25) counted as an interaction"}, "[5]": {"molecular_target": "B1", "test": "two-hybrid; BACTH (bacterial adenylate cyclase two-hybrid) in E. coli cya strain BTH101; T18 and T25 hybrids; beta-galactosidase on LB-IPTG-X-Gal and MacConkey plates and in liquid culture, 30 C; at least four-fold over BTH101(pUT18/pKT25) counted as an interaction"}, "[6]": {"molecular_target": "B. cenocepacia J2315 FtsZ, BACTH hybrid (Burkholderia cenocepacia J2315) (UniProt B4E5Y7)", "test": "two-hybrid; BACTH (bacterial adenylate cyclase two-hybrid) in E. coli cya strain BTH101; T18 and T25 hybrids; beta-galactosidase on LB-IPTG-X-Gal and MacConkey plates and in liquid culture, 30 C; at least four-fold over BTH101(pUT18/pKT25) counted as an interaction"}, "[7]": {"molecular_target": "the molecule itself", "test": "two-hybrid; BACTH (bacterial adenylate cyclase two-hybrid) in E. coli cya strain BTH101; T18 and T25 hybrids; beta-galactosidase on LB-IPTG-X-Gal and MacConkey plates and in liquid culture, 30 C; at least four-fold over BTH101(pUT18/pKT25) counted as an interaction"}},
  "note": "Where two headings read alike, the source gives them in different places.",
  "data": [
    {"molecule": "AAGTTGCACTAGCTCATTCATTTATAACGGTTTTTGGAATGAGGGGTCGCATGAGCATGTGCGCGTAAGTCCTTGTTCTAACTAACAAAATTCGTCAAAAAAGCGGGCCGCTCCCTTGACCGTGCCACACCCTTCCTCTAAAGTGGGAGACAGTGTGAGAAAGTGTATTTTTGTGTGATTTAGCAGGCTATTCCGGCTAAATTCTCAGCATTGAGCGGGTGCTTCGGTGCCCTGAACGGGAGAGCGGAAA (double strand) [BS2 unlabeled]", "values": [
      {"measurement": "binding", "setting": "[1]", "result": "binds"}
    ]},
    {"molecule": "AAGTTGCACTAGCTCATTCATTTATAACGGTTTTTGGAATGAGGGGTCGCATGAGCATGTGCGCGTAAGTCCTTGTTCTAACTAACAAAATTCGTCAAAAAAGCGGGCCGCTCCCTTGACCGTGCCACACCCTTCCTCTAAAGTGGGAGACAGTGTGAGAAAGTGTATTTTTGTGTGATTTAGCAGGCTATTCCGGCTAAATTCTCAGCATTGAGCGGGTGCTTCGGTGCCCTGAACGGGAGAGCGGAAA (double strand) [BS2-6-Fam]", "values": [
      {"measurement": "binding", "setting": "[2]", "result": "binds"}
    ]},
    {"molecule": "B. cenocepacia FtsZ, protein of the sedimentation assays (natural protein)", "values": [
      {"measurement": "percent of the protein in the pellet fraction", "setting": "[3]", "result": 50, "unit": "%"}
    ]},
    {"molecule": "B. cenocepacia J2315 FtsE, BACTH hybrid (natural protein)", "values": [
      {"measurement": "β-galactosidase activity, fold over the control strain", "setting": "[4]", "result": 50, "unit": "fold"}
    ]},
    {"molecule": "B. cenocepacia J2315 FtsN, BACTH hybrid (natural protein)", "values": [
      {"measurement": "β-galactosidase activity, fold over the control strain", "setting": "[5]", "result": 5, "unit": "fold"}
    ]},
    {"molecule": "B. cenocepacia J2315 FtsQ, BACTH hybrid (natural protein)", "values": [
      {"measurement": "β-galactosidase activity, fold over the control strain", "setting": "[6]", "result": 16, "unit": "fold"}
    ]},
    {"molecule": "B. cenocepacia J2315 ZapA, BACTH hybrid (natural protein)", "values": [
      {"measurement": "β-galactosidase activity, fold over the control strain", "setting": "[4]", "result": 10, "unit": "fold"}
    ]},
    {"molecule": "GGAGCGGCCCGCTTTTTTGACGAATTTTGTTAGTTAGAACAAGGACTTACGCGCACATGCTCATGCGACCCCTCATTCCAAAAACCGTTATAAATGAATGAGCTAGTGCAACTTGTGAAGGTGATACGTGAGAAAGACGGCCCAGACGGGCGTGCGGACGGGGCTTTCGGGGGCGGGAAAACGAGGAGTGAGCGGGCGGTATCGGGGGCGGTGAACCGGGGCGGCGTCCCACGCCACCCCGGCGCCAATC (double strand) [BS1-6-Fam]", "values": [
      {"measurement": "binding", "setting": "[2]", "result": "no binding"}
    ]},
    {"molecule": "B. cenocepacia J2315 ZipA, BACTH hybrid (natural protein, Burkholderia cenocepacia J2315, UniProt B4ECN7 1-424, looked up, ZipA of Burkholderia cenocepacia J2315 (gene zipA, BCAL2097); Cloned in all four BACTH vectors; source: bacterial two-hybrid (BACTH) fusion, E. coli BTH101) MDELTLGLIGAGAVVVGGVVVYNAWQGAKVRRRMPRPMPEEAAEAMNRPERDEELPFIEPVRQPVRREPAAPVAAATAAAETARVEPTFGGAAPADTPADLQAEATGVDTSAESSEPAAGEEAVPAATHDAAAEPAEPTEPVMPAATTVSSAPPAIVDRRIDCIVPIRLTGPLPGDKILPVAQRLRRAGSKPVHIEGKPEGGQWELLQNGVRYEELRAAAQLANRSGALNELEFSEFVTGVQQFADAIDGAPEFPDMMETVAMARELDAFAAQCDAQLSINVMSDGAPWSANYVQAVASQDGLLLSRDGTRFVKLDAKQNPVFMLQFGDTNFLRDDLTYKGGNMITLVLDVPVAEEDILPFRLMCDYAKSLSERIGARVVDDSRRPLPESTLLAIEQQLMKLYAKLEEAGIPAGSPVTRRLFSQ", "values": [
      {"measurement": "β-galactosidase activity, fold over the control strain", "setting": "[4]; partners not purified", "result": 4.5, "unit": "fold"},
      {"measurement": "β-galactosidase activity, fold over the control strain", "setting": "[5]; partners not purified", "result": 32, "unit": "fold"}
    ]},
    {"molecule": "B1", "values": [
      {"measurement": "β-galactosidase activity, fold over the control strain", "setting": "[4]; partners not purified", "result": 5, "unit": "fold"}
    ]},
    {"molecule": "putative SulA (pBCA006) of B. cenocepacia J2315, BACTH hybrid (natural protein, Burkholderia cenocepacia J2315, UniProt B4EQP0 1-238, looked up, putative SulA, product of gene pBCA006 of Burkholderia cenocepacia J2315; Cloned in all four BACTH vectors; source: bacterial two-hybrid (BACTH) fusion, E. coli BTH101) MHPALAHPEAIHPALWRASQLARPSVRGVDTGHLELTAELPGGGWPAGALIELLAPQPGIGELRLLAPVLARTAGKPVMLIQPPHALQPLALAYWGIDPSGFVTLPAPRTADALWAAEQALRAGTCAAVLLWQSHVRADALRRLNLAAQSGQALFYLFRPVAAARDASPAPLRLALAPKRDGIDVTFLKRRGPARDTPLFVPLSPSPILLNRHASLDRRASAAPQPRSVPATIAGAVA", "values": [
      {"measurement": "β-galactosidase activity, fold over the control strain", "setting": "[4]; partners not purified", "result": 25, "unit": "fold"}
    ]},
    {"molecule": "B2", "values": [
      {"measurement": "β-galactosidase activity, fold over the control strain", "setting": "[7]", "result": 5, "unit": "fold"}
    ]}
  ]
}
